The labels stand for the following.
B1: target 1 A1G,U8A (mixed)
RNA 1: CACCCGUGCAAAAAUGCAGGGGUCUAAAACUGAGCGGAUAACCUCUCUAUGG
RNA 2: GGGAAUGGAUCCACAUCUACGAAUUCGUACCAUAGAGAGGUUAACCGCUCGCCGAGAUCGGAAGAGCACACGU
B2: target 1 C7U,U11C (mixed)
RNA 1: B1 RNA 1
RNA 2: B1 RNA 2 with U41C, A44U, C45U, G51A
B3: target 1 G12U,C21U (mixed)
RNA 1: B1 RNA 1
RNA 2: B1 RNA 2 with C31U, G40U, A44U, G51A
B4: target 1 U8C,A20U (mixed)
RNA 1: B1 RNA 1
RNA 2: B1 RNA 2 with A32U, A44C, G51A
B5: target 1 insG 3' of 19,insG 3' of 9 (mixed)
RNA 1: B1 RNA 1
RNA 2: GGGAAUGGAUCCACAUCUACGAAUUCGUACCAUGAGAGAGGUUAGUCCGCUCACCGAGAUCGGAAGAGCACACGU
B6: target 1 A1C,U8A (mixed)
RNA 1: B1 RNA 1
RNA 2: B1 RNA 2 with G51C
B7: target 1 insA 3' of 15,insG 3' of 11 (mixed)
RNA 1: B1 RNA 1
RNA 2: B5 RNA 2 with G34A, A35G, G36A, A37G, G38A, U43G, A44U, G45A
B8: target 1 G15C,A16G (mixed)
RNA 1: B1 RNA 1
RNA 2: B1 RNA 2 with A36G, G37C, A44U, G51A
B9: target 1 U3A,C7A (mixed)
RNA 1: B1 RNA 1
RNA 2: B1 RNA 2 with A44U, C45A, U49A, G51A
B10: target 1 U3C,U8G (mixed)
RNA 1: B1 RNA 1
RNA 2: B1 RNA 2 with A44G, U49C, G51A
B11: target 1 U3C,G5A (mixed)
RNA 1: B1 RNA 1
RNA 2: B1 RNA 2 with A44U, G47A, U49C, G51A
B12: target 1 insU 3' of 15,insG 3' of 7 (mixed)
RNA 1: B1 RNA 1
RNA 2: B5 RNA 2 with G34A, A35G, G36A, A37G, G38U, G45U, U46C, C47G
B13: target 1 U8A (mixed)
RNA 1: B1 RNA 1
RNA 2: B1 RNA 2 with G51A
B14: target 3 insA 3' of 14,insC 3' of 3 (mixed)
RNA 1: CACCCGUGCAAAAUUGCAGGGGUCUAAAACGACCUGAAUAUUUCAGAUCAAA
RNA 2: GGGAAUGGAUCCACAUCUACGAAUUCGUUUUUGAUCUGAAAAUAUUCAGGCUCUGCAGAUCGGAAGAGCACACGU
B15: target 3 insA 3' of 6,insA 3' of 4 (mixed)
RNA 1: B14 RNA 1
RNA 2: B14 RNA 2 with A42U, U43A, A44U, U46C, C47A, G50A, C51G
B16: target 3 U8G,U22C (mixed)
RNA 1: B14 RNA 1
RNA 2: GGGAAUGGAUCCACAUCUACGAAUUCGUUCUUGAUCUGAAAUAGUCAGGUCUGCAGAUCGGAAGAGCACACGU
B17: target 3 G3U,A5U (mixed)
RNA 1: B14 RNA 1
RNA 2: B16 RNA 2 with C30U, G44U, A47U, G49U
B18: target 3 insG 3' of 8,insU 3' of 6 (mixed)
RNA 1: B14 RNA 1
RNA 2: B14 RNA 2 with A42U, U43A, A44U, U45G, A48U, G49A, C51G
B19: target 3 insA 3' of 10,insG 3' of 2 (mixed)
RNA 1: B14 RNA 1
RNA 2: B14 RNA 2 with A42U, U43A, C51U, U52G
B20: target 3 insA 3' of 22,insC 3' of 22 (mixed)
RNA 1: B14 RNA 1
RNA 2: GGGAAUGGAUCCACAUCUACGAAUUCGUUUACUUGAUCUGAAAUAUUCAGGUCUGCAGAUCGGAAGAGCACACGU
B21: target 3 insG 3' of 5,insU 3' of 5 (mixed)
RNA 1: B14 RNA 1
RNA 2: B14 RNA 2 with A42U, U43A, A44U, U46C, C47A, A48G, G49U, C51G
B22: target 3 insC 3' of 8,insA 3' of 7 (mixed)
RNA 1: B14 RNA 1
RNA 2: B14 RNA 2 with A42U, U43A, A44U, U45C, C47A, A48C, G49A, C51G
B23: target 3 insG 3' of 6,insC 3' of 4 (mixed)
RNA 1: B14 RNA 1
RNA 2: B14 RNA 2 with A42U, U43A, A44U, U46C, C47G, G50C, C51G
B24: target 3 insA 3' of 10,insU 3' of 5 (mixed)
RNA 1: B14 RNA 1
RNA 2: B14 RNA 2 with A42U, U43A, G49U, C51G
B25: target 3 insG 3' of 22,insU 3' of 22 (mixed)
RNA 1: B14 RNA 1
RNA 2: B20 RNA 2 with A31G, C32U
B26: target 3 G4C,U8G (mixed)
RNA 1: B14 RNA 1
RNA 2: B16 RNA 2 with C30U, G48C
B27: target 3 insG 3' of 7,insC 3' of 4 (mixed)
RNA 1: B14 RNA 1
RNA 2: B14 RNA 2 with A42U, U43A, A44U, U46G, G50C, C51G
B28: target 3 C6G,A11C (mixed)
RNA 1: B14 RNA 1
RNA 2: B16 RNA 2 with C30U, A41C, G44U, C46G
B29: target 3 insU 3' of 9,insC 3' of 7 (mixed)
RNA 1: B14 RNA 1
RNA 2: B14 RNA 2 with A42U, U43A, A44U, A48C, G49A, C51G
B30: target 3 insC 3' of 21,insG 3' of 6 (mixed)
RNA 1: B14 RNA 1
RNA 2: GGGAAUGGAUCCACAUCUACGAAUUCGUUUUCUGAUCUGAAAUAUUCGAGGUCUGCAGAUCGGAAGAGCACACGU
B31: target 3 insA 3' of 4,insC 3' of 4 (mixed)
RNA 1: B14 RNA 1
RNA 2: B14 RNA 2 with A42U, U43A, A44U, U46C, C47A, A48G, G49A, G50C, C51G
B32: target 3 insG 3' of 22,insG 3' of 6 (mixed)
RNA 1: B14 RNA 1
RNA 2: B30 RNA 2 with U31G, C32U

Substitutions are numbered along the chain they refer to. Numbers in names are those of the source.

The target of this data set is T1, EsCas13d, nuclease-dead (Eubacterium siraeum, UniProt B0MS50, R295A;H300A;R849A;H854A).
T1 sequence: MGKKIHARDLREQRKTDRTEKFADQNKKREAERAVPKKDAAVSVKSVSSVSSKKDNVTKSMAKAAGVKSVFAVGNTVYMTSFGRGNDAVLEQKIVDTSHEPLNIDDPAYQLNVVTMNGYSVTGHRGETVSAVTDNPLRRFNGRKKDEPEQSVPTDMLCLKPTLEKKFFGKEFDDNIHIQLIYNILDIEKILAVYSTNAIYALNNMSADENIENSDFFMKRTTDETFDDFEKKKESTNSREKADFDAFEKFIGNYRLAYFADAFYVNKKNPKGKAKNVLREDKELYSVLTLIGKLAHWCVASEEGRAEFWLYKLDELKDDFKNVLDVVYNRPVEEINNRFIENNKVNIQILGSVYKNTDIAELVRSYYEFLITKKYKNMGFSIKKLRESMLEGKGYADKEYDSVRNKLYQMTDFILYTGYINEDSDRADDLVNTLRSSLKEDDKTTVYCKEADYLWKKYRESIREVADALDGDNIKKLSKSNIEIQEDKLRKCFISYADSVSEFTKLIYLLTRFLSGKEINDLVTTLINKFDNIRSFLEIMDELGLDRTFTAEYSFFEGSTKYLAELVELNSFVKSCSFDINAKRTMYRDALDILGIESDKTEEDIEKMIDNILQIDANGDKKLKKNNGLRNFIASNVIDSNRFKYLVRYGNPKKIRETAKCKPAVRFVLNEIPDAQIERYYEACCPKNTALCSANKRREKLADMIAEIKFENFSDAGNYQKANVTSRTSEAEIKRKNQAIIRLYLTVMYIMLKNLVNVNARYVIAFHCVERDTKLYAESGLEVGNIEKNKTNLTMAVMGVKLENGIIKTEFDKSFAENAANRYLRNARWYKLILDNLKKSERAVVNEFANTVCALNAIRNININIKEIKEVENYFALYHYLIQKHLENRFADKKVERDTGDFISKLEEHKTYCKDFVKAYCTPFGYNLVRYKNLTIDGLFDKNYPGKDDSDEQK
Nature of the data set: crRNA (strand 1, pre-loaded); Mg2+; 40 mM Tris-HCl pH 7.5, 150 mM NaCl, 6 mM MgCl2, 1 mM DTT, 0.1% Tween-20, 0.2 mg/ml BSA; 25 C; 10 min per concentration, then washed. To be noted: tags: His6-TwinStrep-SUMO cleaved; N-terminal SNAP kept (SNAP-Surface 488); label: 3' end held by stalled T7 RNA polymerase.
Consider B1, for which binding was characterised by a dissociation constant (Kd) of 31.7 ± 1.8 nM.

Take B2: the Kd (as a rule, the concentration at which binding is half-saturated) is 8.7 ± 0.4 nM.

With B3, the Kd was determined as 7.4 ± 0.5 nM.

With B4, the Kd worked out at 80 ± 8 nM.

Molecule B5 had a dissociation constant Kd of 44 ± 5 nM.

B6 showed a Kd of 25.5 ± 1.8 nM.

With B7, the Kd is 24 ± 4 nM.

As to B8, the affinity, expressed as Kd, was 71 ± 11 nM.

B9 yielded a Kd of 7 ± 0.4 nM.

Molecule B10 returned a dissociation constant (Kd) of 18.6 ± 1.2 nM.

With B11, binding was characterised by a dissociation constant (Kd) of 67 ± 22 nM.

Turning to B12, binding was put at a Kd of 10.7 ± 0.4 nM.

Take B13: the Kd was 22.2 ± 1.7 nM.

Molecule B14 returned a Kd of 59 ± 9.5 nM.

B15 displayed a Kd of 10.8 ± 0.9 nM.

B16 came in with a Kd of 90 ± 40 nM.

As to B17, the Kd stood at 32.5 ± 4.5 nM.

The molecule B18 registered a Kd of 28.3 ± 3.3 nM.

B19 returned a dissociation constant Kd of 42 ± 6.5 nM.

The molecule B20 gave a Kd of 15 ± 1.4 nM.

Regarding B21, the Kd worked out at 18.1 ± 2.95 nM.

In turn, B22 gave a Kd of 40.5 ± 4 nM.

For the molecule B23, binding was characterised by a dissociation constant (Kd) of 13.2 ± 1.5 nM.

On to B24, for which binding was put at a Kd of 58.5 ± 6.5 nM.

In turn, B25 registered a Kd of 28 ± 4.5 nM.

With B26, binding was put at a Kd of 69 ± 8 nM.

B27 showed a Kd of 64 ± 8 nM.

Turning to B28, binding was characterised by a dissociation constant (Kd) of 30.1 ± 4.65 nM.

B29 registered a Kd of 100 ± 21 nM.

In turn, B30 yielded a Kd of 100 ± 40 nM.

Molecule B31 showed a Kd of about 110 nM.

Regarding B32, the dissociation constant Kd came out at 90 ± 41.5 nM.

(Values after article PMC10786891, “Massively parallel profiling of RNA-targeting CRISPR-Cas13d”.)
